According to publication doi:10.1101/545921 (bioRxiv, 2019):

B1: Glycolytic glyceraldehyde-3-phosphate dehydrogenase of Arabidopsis thaliana (AtGAPC1), native / reduced (enzyme, UniProt P25858 1-338, looked up)
chain: MADKKIRIGINGFGRIGRLVARVVLQRDDVELVAVNDPFITTEYMTYMFKYDSVHGQWKHNELKIKDEKTLLFGEKPVTVFGIRNPEDIPWAEAGADYVVESTGVFTDKDKAAAHLKGGAKKVVISAPSKDAPMFVVGVNEHEYKSDLDIVSNASCTTNCLAPLAKVINDRFGIVEGLMTTVHSITATQKTVDGPSMKDWRGGRAASFNIIPSSTGAAKAVGKVLPALNGKLTGMSFRVPTVDVSVVDLTVRLEKAATYDEIKKAIKEESEGKLKGILGYTEDDVVSTDFVGDNRSSIFDAKAGIALSDKFVKLVSWYDNEWGYSSRVVDLIVHMSKA
B2: H2O2-oxidized AtGAPC1 (AtGAPC1-SO2H) (enzyme, Arabidopsis thaliana, UniProt P25858 1-338, looked up)
chain: B1 chain
modifications: sulfinic acid or sulfinate (-SO2H or -SO2-) at Cys149
B3: IAM-pretreated AtGAPC1 WT (WT-IAM) (enzyme, Arabidopsis thaliana, UniProt P25858 1-338, looked up)
chain: B1 chain
modifications: Cys149 alkylated by iodoacetamide (IAM)

Molecular target: the molecule itself
Test: dynamic light scattering

Stoichiometry N, 4:
B1, B2, B3
